Reference: US20210380703A1 (RIGEL PHARMACEUTICALS, published 2021)

Legend:
Human ACVR2A [1] = biological target: T1, Human ACVR2A (human, UniProt P27037 20-135, limits assumed); assay: ELISA
T1 construct: also called activin receptor, type II A
Outline: (§1)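 Monoclonal antibodies were first applied to human or mouse ACVR2A, alongside biotinylated goat anti-human kappa light chain (positive control) and human Fc (negative control); binding was then determined by ELISA.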

Mouse ACVR2A [2] = biological target: Mouse ACVR2A (mouse, UniProt P27038 20-135, limits assumed); assay: ELISA
Outline: as §1

Goat anti-Human Kappa = biological target: T2, Goat anti-Human Kappa; assay: ELISA; positive control
T2 construct: Positive control; also called biotinylated goat anti-human kappa light chain
Outline: (§2)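 ELISA measured binding of ACVR2A-specific monoclonal antibodies to human and mouse ACVR2A. Biotinylated goat anti-human kappa light chain served as positive control and human Fc as negative control.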

human ACVR2A [3] = biological target: human ACVR2A (human, UniProt P27037 20-135, limits assumed); assay: ELISA
Outline: as §1

mouse ACVR2A [4] = biological target: mouse ACVR2A (mouse, UniProt P27038 20-135, limits assumed); assay: ELISA
Outline: as §1

[5] = biological target: T3, biotinylated goat anti-human kappa light chain; assay: ELISA; positive control
T3 construct: Positive control of the ELISA
Outline: as §2
Note: test concentration or dose not given here.

Chain of Mouse ACVR2A (P27038 20-135 limits assumed): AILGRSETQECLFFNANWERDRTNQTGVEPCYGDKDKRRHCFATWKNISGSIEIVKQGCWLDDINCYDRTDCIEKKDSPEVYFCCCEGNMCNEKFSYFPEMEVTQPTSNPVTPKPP
T1 sequence (P27037 20-135 limits assumed): as the sequence (P27038 20-135 limits assumed) above, with R20K, I73V counted along it
Chain of mouse ACVR2A (P27038 20-135 limits assumed): as the sequence (P27038 20-135 limits assumed) above
Chain of human ACVR2A (P27037 20-135 limits assumed): as the sequence (P27038 20-135 limits assumed) above, with R20K, I73V counted along it

B1: 365_B01 (antibody, V domains shown)
VH: EVQLLESGGGLVQPGGSLRLSCAASGFTFDSYGMHWVRQAPGKGLEWVASINYNSGYTSYADSVKGRFTISRDNSKNTLYLQMNSLRAEDTAVYYCARSANWHDTALDYWGQGTLVTVSS
VL: DIQMTQSPSSLSASVGDRVTITCRASQSISSYVNWYQQKPGKAPKLVIYAATSRASGVPSRFSGSGSGTDFTLTISSLQPEDFATYYCQQSYESPLTFGGGTKVEIK
notes: VH/VL only
- optical density (Human ACVR2A [1]): 2.39 OD
- optical density (Mouse ACVR2A [2]): 2.65 OD
- optical density (Goat anti-Human Kappa): 3.49 OD

B2: 366_H07 (antibody, V domains shown)
VH: EVQLLESGGGLVQPGGSLRLSCAASGFTFSSYGMHWVRQAPGKGLEWVSGINYNGGYTSYADSVKGRFTISRDNSKNTLYLQMNSLRAEDTAVYYCARSANWHDTALDYWGQGTLVTVSS
VL: DIQMTQSPSSLSASVGDRVTITCRASQSIISYVNWYQQKPGKAPKLVIYAVTSRASGVPSRFSGSGSGTDFTLTISSLQPEDFATYYCQQSYENPLTFGGGTKVEIK
notes: VH/VL only
- optical density (Human ACVR2A [1]): 2.53 OD
- optical density (Mouse ACVR2A [2]): 2.67 OD
- optical density (Goat anti-Human Kappa): 3.6 OD

B3: 367_B02 (antibody, V domains shown)
VH: EVQLLESGGGLVQPGGSLRLSCAASGFTFDSYGMNWVRQAPGKGLEWVSSINYNGGYTSYADSVKGRFTISRDNSKNTLYLQMNSLRAEDTAVYYCARSANWHDTALDYWGQGTLVTVSS
VL: not shown
notes: VH/VL only
- optical density (Human ACVR2A [1]): 2.29 OD
- optical density (Mouse ACVR2A [2]): 2.42 OD
- optical density (Goat anti-Human Kappa): 3.53 OD

B4: 365_B06 (antibody, V domains shown)
VH: EVQLLESGGGLVQPGGSLRLSCAASGFTFDSYGMHWVRQAPGKGLEWVSNINYNGGYKSYADSVKGRFTISRDNSKNTLYLQMNSLRAEDTAVYYCARSANWHDTALDYWGQGTLVTVSS
VL: DIQMTQSPSSLSASVGDRVTITCRASQSILTYVNWYQQKPGKAPKLLIYATTSLASGVPSRFSGSGSGTDFTLTISSLQPEDFATYYCQQSYDLPLTFGGGTKVEIK
notes: VH/VL only
- optical density (Human ACVR2A [1]): 2.25 OD
- optical density (Mouse ACVR2A [2]): 2.42 OD
- optical density (Goat anti-Human Kappa): 3.28 OD

B5: 370_A09 (antibody, V domains shown)
VH: EVQLLESGGGLVQPGGSLRLSCAASGFTFSSYSMNWVRQAPGKGLEWVAGINYNGGYTGYADSVKGRFTISRDNSKNTLYLQMNSLRAEDTAVYYCARSATWHDTHLDYWGQGTLVTVSS
VL: DIQMTQSPSSLSASVGDRVTITCRASQSILTYLNWYQQKPGKAPKLVIYAATSRASGVPSRFSGSGSGTDFTLTISSLQPEDFATYYCQQSYDTPLTFGGGTKVEIK
notes: VH/VL only
- optical density (human ACVR2A [3]): 3.46 OD
- optical density (mouse ACVR2A [4]): 3.27 OD
- optical density [5]: 3.58 OD

B6: 366_A07 (antibody, V domains shown)
VH: EVQLLESGGGLVQPGGSLRLSCAASGFTFSSYGMHWVRQAPGKGLEWVASINYNGGYTGYADSVKGRFTISRDNSKNTLYLQMNSLRAEDTAVYYCARSANWHDTALDYWGQGTLVTVSS
VL: DIQMTQSPSSLSASVGDRVTITCRASQSIVSYVNWYQQKPGKAPKLVIYAATSRHSGVPSRFSGSGSGTDFTLTISSLQPEDFATYYCQQSYESPLTFGGGTKVEIK
notes: VH/VL only
- optical density (Human ACVR2A [1]): 2.42 OD
- optical density (Mouse ACVR2A [2]): 2.68 OD
- optical density (Goat anti-Human Kappa): 3.37 OD

B7: 365_F01 (antibody, V domains shown)
VH: EVQLLESGGGLVQPGGSLRLSCAASGFTFDSYSMNWVRQAPGKGLEWVSGINYNSGYKGYADSVKGRFTISRDNSKNTLYLQMNSLRAEDTAVYYCARSANWHDTHLDYWGQGTLVTVSS
VL: DIQMTQSPSSLSASVGDRVTITCRASQSIVSYLNWYQQKPGKAPKLVIYAATSLASGVPSRFSGSGSGTDFTLTISSLQPEDFATYYCQQSYELPLTFGGGTKVEIK
notes: VH/VL only
- optical density (Human ACVR2A [1]): 2.51 OD
- optical density (Mouse ACVR2A [2]): 2.47 OD
- optical density (Goat anti-Human Kappa): 3.51 OD

B8: 365_C12 (antibody, V domains shown)
VH: EVQLLESGGGLVQPGGSLRLSCAASGFTFSSYGMNWVRQAPGKGLEWVAGINYNSGYKSYADSVKGRFTISRDNSKNTLYLQMNSLRAEDTAVYYCARSANWHDTALDYWGQGTLVTVSS
VL: DIQMTQSPSSLSASVGDRVTITCRASQSIVSYVNWYQQKPGKAPKLVIYAVTSLASGVPSRFSGSGSGTDFTLTISSLQPEDFATYYCQQSYDTPLTFGGGTKVEIK
notes: VH/VL only
- optical density (Human ACVR2A [1]): 1.92 OD
- optical density (Mouse ACVR2A [2]): 2.04 OD
- optical density (Goat anti-Human Kappa): 3.58 OD

B9: 365_H03 (antibody, V domains shown)
VH: EVQLLESGGGLVQPGGSLRLSCAASGFTFDDYGMNWVRQAPGKGLEWVAGINYNGGYKSYADSVKGRFTISRDNSKNTLYLQMNSLRAEDTAVYYCARSANWHDTALDYWGQGTLVTVSS
VL: DIQMTQSPSSLSASVGDRVTITCRASQSILSYVNWYQQKPGKAPKLVIYAATSLHSGVPSRFSGSGSGTDFTLTISSLQPEDFATYYCQQSYNNPLTFGGGTKVEIK
notes: VH/VL only
- optical density (Human ACVR2A [1]): 2.32 OD
- optical density (Mouse ACVR2A [2]): 2.65 OD
- optical density (Goat anti-Human Kappa): 3.27 OD

B10: 366_E10 (antibody, V domains shown)
VH: EVQLLESGGGLVQPGGSLRLSCAASGFTFDSYGMNWVRQAPGKGLEWVSGINYNGGYKGYADSVKGRFTISRDNSKNTLYLQMNSLRAEDTAVYYCARSANWHDTHLDYWGQGTLVTVSS
VL: DIQMTQSPSSLSASVGDRVTITCRASQSILSYVNWYQQKPGKAPKLVIYAATSRHSGVPSRFSGSGSGTDFTLTISSLQPEDFATYYCQQSYSLPLTFGGGTKVEIK
notes: VH/VL only
- optical density (Human ACVR2A [1]): 2.35 OD
- optical density (Mouse ACVR2A [2]): 2.39 OD
- optical density (Goat anti-Human Kappa): 3.45 OD

B11: 365_C01 (antibody, V domains shown)
VH: EVQLLESGGGLVQPGGSLRLSCAASGFTFDSYGMNWVRQAPGKGLEWVSSINYNSGYKSYADSVKGRFTISRDNSKNTLYLQMNSLRAEDTAVYYCARSANWHDTHLDYWGQGTLVTVSS
VL: DIQMTQSPSSLSASVGDRVTITCRASQSIVSYLNWYQQKPGKAPKLVIYAVTSRASGVPSRFSGSGSGTDFTLTISSLQPEDFATYYCQQSYESPLTFGGGTKVEIK
notes: VH/VL only
- optical density (Human ACVR2A [1]): 2.87 OD
- optical density (Mouse ACVR2A [2]): 3.02 OD
- optical density (Goat anti-Human Kappa): 3.63 OD

B12: 366_H09 (antibody, V domains shown)
VH: EVQLLESGGGLVQPGGSLRLSCAASGFTFDSYGMNWVRQAPGKGLEWVSNINYNSGYKGYADSVKGRFTISRDNSKNTLYLQMNSLRAEDTAVYYCARSANWHDTALDYWGQGTLVTVSS
VL: DIQMTQSPSSLSASVGDRVTITCRASQSIVSYVNWYQQKPGKAPKLVIYATTSRASGVPSRFSGSGSGTDFTLTISSLQPEDFATYYCQQSYSSPLTFGGGTKVEIK
notes: VH/VL only
- optical density (Human ACVR2A [1]): 2.1 OD
- optical density (Mouse ACVR2A [2]): 2.44 OD
- optical density (Goat anti-Human Kappa): 3.42 OD

B13: 366_G05 (antibody, V domains shown)
VH: EVQLLESGGGLVQPGGSLRLSCAASGFTFDSYGMNWVRQAPGKGLEWVSNINYNGGYTSYADSVKGRFTISRDNSKNTLYLQMNSLRAEDTAVYYCARSANWHDTALDYWGQGTLVTVSS
VL: DIQMTQSPSSLSASVGDRVTITCRASQSIISYVNWYQQKPGKAPKLVIYAATSRASGVPSRFSGSGSGTDFTLTISSLQPEDFATYYCQQSYENPLTFGGGTKVEIK
notes: VH/VL only
- optical density (Human ACVR2A [1]): 2.21 OD
- optical density (Mouse ACVR2A [2]): 2.5 OD
- optical density (Goat anti-Human Kappa): 3.26 OD

B14: 365_A01 (antibody, V domains shown)
VH: EVQLLESGGGLVQPGGSLRLSCAASGFTFSDYGMNWVRQAPGKGLEWVAGINYNGGYTSYADSVKGRFTISRDNSKNTLYLQMNSLRAEDTAVYYCARSATWHDTHLDYWGQGTLVTVSS
VL: DIQMTQSPSSLSASVGDRVTITCRASQSILTYVNWYQQKPGKAPKLVIYATTSLASGVPSRFSGSGSGTDFTLTISSLQPEDFATYYCQQSYSTPLTFGGGTKVEIK
notes: VH/VL only
- optical density (human ACVR2A [3]): 2.77 OD
- optical density (mouse ACVR2A [4]): 2.9 OD
- optical density [5]: 3.51 OD
